Protein production data for 17 sequences are collected here from a protein production outcome set (Wang et al. 2014).
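Note: failed if final PepcDB status was selected cloned or expressed and not failed if soluble or beyond.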

The data set in a line: label from the status in PepcDB records.
Consider “MKVSILIITYNHSHFIAQAIESVLMQKVKFEYEIVIGEDSSTDNTRQILLDYQKQYSDKIRLLLPEKNLGMHRNFVNTLQACRGEYIAILEGDDYWIADDKLQKQVEFLDENPDFTICFHNVMVFHEDNQYQPYIFLHNQPTVSYIEDLLIRNFISTPSVMYRNGLVESIPTWFYEQGMGDWIFHILNAQYGKIGYIDEVMSAYRIHVQGVWSSKSRDWQLKETIRMLDTIKSNVNVRYAEIIDRAVQFYSEQLLYLVPESQEVTPVLNTSLPNYLQIKDINFIAFPDWNQPEELLYQSLYYAIKLFLTHPENNKIALFIDTTDISEEDADIYISSTLMNLMLEEELEESHKINVFLIGELDQIQWQTLLSFLKARIVLPSENLDAILASGTAIIPCLTVEQLIEFDLTFIESAKPYKLNIGCGNVRFHGWINIDIEQNYKTVDLVCDARQKLPFNDNSCDLIYNEHFLEHLTLEEGLFFLKECHRILKPEGILRIAMPSLEYVVQKYMSDDWRNQEWLNYPEYQFIKTRAEMLNIAMRWWGHQWLYDTEELHRRLTESGYINVQNFAWGKSNTPDLRNRETRVDSILICESQALK”, for which the protein production entry was “failed”. Then “MIEVVCNDRLGKKVRVKCNTDDTIGDLKKLIAAQTGTRWNKIVLKKWYTIFKDHVSLGDYEIHDGMNLELYYQ”, with “not failed”.

“MATFFLVSFLSFSKWKEKRQVGLWGPEAAVTEEEEEEAGARRSGPGLAGRRLRGKGRRGRVASPAGRPDTLSRRGAGERAGCLGAGDRGLRHSDRHSPLGRGRAAPGMATSRQTASPRTRMDYLYSCQVDAMHSGMSVTRLVTQPDVLPAHRRRDIKMAAPRSCVLWSYCGHGWSRLAGDCRLPGFRRSWLGATLSARSLSQEKRAAETHFGFETVSEKEKGGKVYQVFQSVARKYDLMNDMMSLGIHRAWKDLLIRKMHPLPGTQLLDVAGGTGDIAFRFLSYVQTQHERKQRRQLRTRQNLSWEEIARKYQSKEDPLGGSLVMVCDINREMLKVGKQKALARGHTADLCECDAKLVYTVSFSSRSFTQALQEAHRVLKPGGRFLCLEFSQVNDPLISRLYDLYSFQVIPVIGEVIAGDWKSYQYLVESIRKFPNQEEFKDMIEDAGFQKVTYESLTSGIVAIHSGFKL”: the protein production result was “failed”. The value for “MVIDFSAFYELPRLIDRLAAEGESSFAASRGQAVFPPLNIGEDESAVYVRALIPGGDLSALDLTLTDKTLVLRGELPPVRGRYYRQERRTGPFQRVVLLNVPIDRDRVHAAMRDGVLEVVLPKAQQERLRTIHITTR” was “failed”.

Turning to “MLTDAHCRAAKAKDKLYRINDARGLYLEVKPNGVRAWRYRFKLCGKASWFALGDYPDLSLANAREKCDEARKLVRQGINPVQNRQLTKIKREMDASNTFETIAQEWLALKSWEPVTKSRRLGMLKRVVFPSIGKLPVRTITSAHVLDILNKTVKRGAPTVAAEAKRTMSGVFELAVATLRADTDPVWPVRKALPPNKTQHKAALTSGQVGNLLNAFDSHGGHFQTQMAFRLMWLTLTRANESVQARWDEFDLANGLWKIPKERMKARREHLLPLPRQAVSILTTMQPITGQSTYVFPNRDDRHKPMSDAAFRQALKKLGWATIYSPHGTRTTGSTRLNEMGYRSDAIEAQLAHAEPNSVRRAYNHAIYMVERAEMMQHWADKLDLWKKEASDAAI”, the protein production result was “failed”. Then “MTSSEQPRTYWLEHAWLGTHVEPGVALDVRDGRITAVNQGVATPPPGAGILRGLTLPGLANAHSHAFHRALRGTVQVGSGTFWTWREVMYSVADRLTPDTYHALARAVYAEMALAGITAVGEFHYVHHAPGGTPYADPNAMGEALIEAAAEAGVRITLLDTCYLSSGFGEPPNTHQRRFSDGTADAWAERCSVLKERDHARIGAAIHSVRAVPADQLATVAQWAEERRAPLHVHLSEQTAENDACRQAHGRTPTRLLADHGVLGARTTGVHNTHLTDEDIALLGGSRTGTCMCLTTERDLADGIGPAAALQRAGSPLSLGSDSHAVVDLLEEARAMELNERLRTRARGHWTAAALLRAATADGHAALGWDDTGRIEAGARADLATIALDSVRTAGPLPRLGAETAVFAATAADVRHTVVGGRHVVRDGAHTLVPDVPQALARAVEALRA”, with “failed”; and “MQNTPVILFDLDGTLIDSTEAVYEGFCVAFEKNGGAIPSQGKVVELIGHTLEDMFLRLGVPEVNITQHVLDYKAHYRIISKPKTNLLPKAREAILEASKFATLGVVTTKTGRFSRELLEYFEVLHFFKSIVGREDVTNAKPHPEPIFKALSEIGIKEVSAWMVGDTPLDLLAAQEAGIKSVAVLSGYAEEEMLRKYTLNVSKD”, with “failed”; and “MMRTGFQGVARLVHHKALYRSPQTLPRLHLASAFGSSTDSLVARFCGEKTDLKDYALPNASWCPDMLSLYQEFLEKTKSGSWVKLPSFKSNRDHIRGLKLPFGLVAASDKQDWRLFTRSIQLEGQGYEYVIFFHPSEKKSVCLFQPGPYLEGAPGFAHGGSLAALMDETYSKTAYLAGEGLFTLSFNIKFKNLIPVGSLAVLDLQVEKIEDQKLYMSCIAQSRDKQTVYAKSSGVFLQLQLEEEQSGEQ”, with “failed”. Then “MPDPRGGAQGGGVSGQEGPTLISSVQRAFRLMEAVGAHESGVPAKQLARETGLALGTTYHLLRTMVHDGYVRKLEDGTFVLGERLGALHAGSRDQTALSRVRPTLTELRDDLSAAAYLTLYEEGEIRVAEIVDGPKAPRVDLWVGFEDAGHATALGKSVLRELDAEARADYLSRHALNDLTPRTITYRAQLLRSLDAAPRGPAVTDLEEYRLGTACVAVPVRRGDTIGSLGISVDINRTACLDDAVTTLLATAERVSRGLSLTI”, with “failed”; and “MSSEVEQNVPCEACGCSAEMGFVIKEGDDVAEVSIFADNKVLLESEFSNYLALAKEVCADVEHSIVITEDEKELHARLKFSCSAEKLIYELKTRSLRRLEHHHHHH”, with “failed”. Then “QIPAERDREPSKLKRSYSSPDITQAIQEEEKRKPTVTPTVNRENKPTCYPKAEISRLSASQIRNLNPVFGGSGPALTGLRNLGNTCYMNSILQCLCNAPHLADYFNRNCYQDDINRSNLLGHKGEVAEEFGIIMKALWTGQYRYISPKDFKITIGKINDQFAGYSQQDSQELLLFLMDGLHEDLNKADN”, with “failed”; and “MAINRSSDHESDENTRLYHPYQNYQVPIKSQYLYKLPTSPEFLFTEESLKQRRSWGENLTFYTGTGYLAGSVAGASAGIFSGIKSFENGDTTKLKINRILNSSGQAGRTWGNRVGIVGLIYAGIESGVVAVTDKDDVWTSVVAGLGTGAVFRAARGVRSAAVAGAFGGIAAGAVVAGKQVFKRDPERGSITLDP”, with “failed”; and “MKMEELFKKHKIVAVLRANSVEEAKEKALAVFEGGVHLIEITFTVPDADTVIKELSFLKEKGAIIGAGTVTSVEQCRKAVESGAEFIVSPHLDEEISQFCKEKGVFYMPGVMTPTELVKAMKLGHTILKLFPGEVVGPQFVKAMKGPFPNVKFVPTGGVNLDNVCEWFKAGVLAVGVGSALVKGTPDEVREKAKAFVEKIRGCTE”, with “not failed”. Consider “MTRPAHPISRYPVPELAALPDDIRQRILEVQDKAGFVPNVFLTLAHRPDEFRAFFAYHDALMLKDGGLTKGEREMIVVATSAANQCLYCVVAHGAILRIYEKKPLVADQVAVNYLKADIPPRQRAMLDFALKVCKASHEVNEADFEALREHGFTDEDAWDIAAITAFFGLSNRMANTIGMRPNDEFFLMGRVPKSK”, for which the protein production result is “not failed”. The value for “MPTFLLVNDDGYFSPGINALREALKSLGRVVVVAPDRNLSGVGHSLTFTEPLKMRKIDTDFYTVIDGTPADCVHLGYRVILEEKKPDLVLSGINEGPNLGEDITYSGTVSGAMEGRILGIPSIAFSAFGRENIMFEEIAKVCVDIVKKVLNEGIPEDTYLNVNIPNLRYEEIKGIKVTRQGKRAYKERVFKYIDPYGKPFYWIAAEEFGWHAEEGTDYWAVLNGYVSVTPLHLDLTNYKVMKSIKYLEDSP” was “not failed”. The value for “VKRAVQKTSDLIVLGLPWKTTEQDLKEYFSTFGEVLMVQVKKDLKTGHSKGFGFVRFTEYETQVKVMSQRHMIDGRWCDCKLPNSKQSQD” was “not failed”. Then “MSLFRQGSQFMIIGALQLAVDCGIFIAATAAGMPAVPANLLGRIGGAMLGFWLNGRYTFAQQGDARLGWRRFRRFAAMWLTLTLISTWLLSTTVDLLGLRQAWLAKPLVEGGLAIVSFFLGRHVVYR”, with “failed”.
